Experimental data published in patent US20240115706A1.

What was measured:
[1] = biological target: monkey GUCY2C-rCD4 fusion protein (Macaca fascicularis (crab-eating macaque); Rattus norvegicus); assay: ELISA (DELFIA), antigen on streptavidin plate, scFv culture solution, Eu-anti-tag Ab
[2] = biological target: mouse GUCY2C-rCD4 fusion protein (Mus musculus (house mouse); Rattus norvegicus); assay: as above

Chain of monkey GUCY2C-rCD4 fusion protein (Macaca fascicularis (crab-eating macaque); Rattus norvegicus) (chain, as listed by the source limits assumed): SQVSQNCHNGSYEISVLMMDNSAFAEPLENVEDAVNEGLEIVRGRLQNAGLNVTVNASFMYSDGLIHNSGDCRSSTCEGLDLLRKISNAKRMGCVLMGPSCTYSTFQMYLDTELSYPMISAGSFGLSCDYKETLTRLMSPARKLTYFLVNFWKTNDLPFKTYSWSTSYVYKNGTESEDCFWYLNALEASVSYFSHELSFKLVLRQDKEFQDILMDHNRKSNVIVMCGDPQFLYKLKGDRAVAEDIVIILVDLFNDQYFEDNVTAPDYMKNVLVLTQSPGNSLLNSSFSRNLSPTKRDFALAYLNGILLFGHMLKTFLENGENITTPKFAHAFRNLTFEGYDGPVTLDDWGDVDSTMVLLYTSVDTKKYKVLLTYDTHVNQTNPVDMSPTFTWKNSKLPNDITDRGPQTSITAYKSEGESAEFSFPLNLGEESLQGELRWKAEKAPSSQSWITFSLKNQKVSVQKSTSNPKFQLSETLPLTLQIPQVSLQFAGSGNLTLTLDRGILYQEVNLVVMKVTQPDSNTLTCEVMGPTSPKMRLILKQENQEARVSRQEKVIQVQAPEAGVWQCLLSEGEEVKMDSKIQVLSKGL

Row | Binder | Binding ELISA signal [1] | Binding ELISA signal [2]
1 | scFv A02 (scFv) scFv: EVQLVQPGAEVKKPGSSVKVSCKASGGTLSSYAISWVRQAPGQGLEWMGRIIPILGITNYAQKFQGRVTITADKSTSTAYMELSSLRSEDTAVYFCARDQRPASMDVWGQGTLVTVSSGGGGSGGGGSGGGASQSELTQPASVSGSPGQSITISCTGTSSDVGGYIYVSWYQQHPGKVPKLMIHDVSHRPSGVSNRFSGSRSGNTASLTISGLQAEDEADYFCSSYAGSNNYVFGTGTKVTVL | 60 | 74
2 | scFv A05 (scFv) scFv: QVQLVQSGAEVKKPGSSVKVSCKASGGTFSSYTITWVRQAPGQGLEWMGRIIPVLGIANYAQKFQGRVTITADKSTSTAYMELSSLRSEDTAVYYCARDYSSSWNSMDVWGQGTLVTVSSGGGGSGGGGSGGGASQSGLTQPRSVSGSPGQSVTISCTGTSSDVGGYNYVSWYQQHPGKAPKLMIYDVSKRPSGVPDRFSGSKSGNTASLTVSGLHAEDEADYYCSSYAGSNNFVFGTGTKVTVL | 89 | 62
3 | scFv A06 (scFv) scFv: QVQLVQSGAEVKKPGSSVKVSCKASGGTFGSYTISWVRQAPGQGLEWMGRIIPILGIANYAQKFQGRVTITADKSTSTAYMELSSLRSEDTAVYYCARDYSSSWNSMDVWGQGTLVTVSSGGGGSGGGGSGGGASQSGLTQPRSVSGSPGQSVTISCTGTSSDVGAYNYVSWYQQHPGKAPKLMIYEVSKRPSGVPDRFSASKSGNTASLTVSGLQAEDEADYYCSSYAGSNNWVFGGGTKLTVL |  | 80
4 | scFv A03 (scFv) scFv: QVQLVQSGAEVKKPGSSVKVSCKASGGTFSSYTISWVRQAPGQELEWMGRIIPILGIANYAQKFQGRVTITADKSTSTAYMELSSLRSEDTAVYYCARDYSSSWNSMDVWGQGTLVTVSSGGGGSGGGGSGGGASQSGLTQPPSASGSPGQSVTISCTGTSSDIGYYHYVSWYQQHPGKAPKLMIYEDSKRPSGISNRFSGSKSGTTASLTVSGLQAEDEAHYYCSSFTSRSTWVFGGGTQLTVL |  | 77
5 | scFv B12 (scFv) scFv: QVQLVESGGGLVKPGGSLRLSCAASGFTFSSYSMNWVRQAPGKGLEWVSVIYSGGSTHYADSVKGRFTISRHNSKNTLYLQMNSLRAEDTAVYYCARGAGTLNAFDIWGQGTTVTVSSGGGGSGGGGSGGGASQSGLTQPPSTSGSPGQSVTISCTGTSSDVGAYSYVSWYQQHPGKAPKLLIYAVTKRPSGVPDRFSGSKSGNTASLTVSGLQDEDEADYYCSSFAGGSTLVFGGGTKLTVL |  | 48
6 | scFv A01 (scFv) scFv: QVQLVQSGAEVKKPGASVKVSCKASGYTFTSYYMHWVRQAPGQGLEWMGIINPSGGSTSYAQEFQGRVTMTRDTSTSTVYMELSSLRSEDTAVYYCARDGQWLQFDYWGQGTLVTVSSGGGGSGGGGSGGGASDIVMTQSPLSLPVTLGQPASISCRSSQSLLKKSDGNTYLSWYHQRPGQSPRRLIYKVSNRDSGVPDRFSGSGSDTDFTLKISRVETEDVGIYYCMQGSHWPPTFGQGTKVEIK |  | 352

Continued, values first:

Row | Binding ELISA signal [1] | Binding ELISA signal [2] | Binder
7 | 73 | 66 | scFv A04 (scFv) scFv: EVQLVQPGAEVKKPGSSVKVSCKASGGTLSSYAISWVRQAPGQGLEWMGRIIPILGITNYAQKFQGRVTITADKSTSTAYMELSSLRSEDTAVYFCARDQRPASMDVWGQGTLVTVSSGGGGSGGGGSGGGASQSELTQPASVSGSPGQSITISCTGTSSDVGGYIYVSWYQQHPGKVPKLMIHDVSHRPSGVSNRFSGSRSGNTASLTISGLQAEDEADYFCSSYTSSNNYYFGTGTKVTVL
8 | 56 | 53 | scFv A12 (scFv) scFv: EVQLVQPGAEVKKPGSSVKVSCKASGGTLSSYAISWVRQAPGQGLEWMGRIIPILGITNYAQKFQGRVTITADKSTSTAYMELSSLRSEDTAVYFCARDQRPASMDVWGQGTLVTVSSGGGGSGGGGSGGGASQSELTQPASVSGSPGQSITISCTGTSSDVGGYIYVSWYQQHPGKVPKLMIHDVSHRPSGVSNRFSGSRSGNTASLTISGLQAEDEADYFCSSYTSSNNYVFGTGTKVTVL
9 |  | 70 | scFv B01 (scFv) scFv: EVQLVQPGAEVKKPGSSVKVSCKASGGTLSSYAISWVRQAPGQGLEWMGRIIPILGITNYAQKFQGRVTITADKSTSTAYMELSSLRSEDTAVYFCARDQRPASMDVWGQGTLVTVSSGGGGSGGGGSGGGASQSGLTQPASVSGSPGQSITISCTGTSSDVGGYNYVSWYQQHPGKAPKLMIYEVSNRPSGVSNRFSGSKSGNTASLTISGLQAEDEADYYCSTVTSLSTYVFGTGTKLTVL
10 |  | 61 | scFv C02 (scFv) scFv: QVQLVQSGAEVKKPGSSVKVSCKASGGTFSSYTISWVRQAPGQGLEWMGRIIPILGIANYAQKFQGRVTITADKSTSTAYMELSSLRSEDTAVYYCARDRSYNWLDPWGRGTLVTVSSGGGGSGGGGSGGGASQSALTQPVSVSGSPGQSITISCTGTISDVGDYNYVSWYQQHPGKAPKLMIYDVNNRPSGVSNRFSGSKSGNTASLTISGLQAEDEADYYCSSYTSSSTLVFGGGTKLTVL
11 |  | 66 | scFv B07 (scFv) scFv: EVQLVQSGAEVKRPGSSVKVSCKASGYTFTSYYMHWVRQAPGQGLEWMGIINPSGGSTSYAQKFQGRVTMTRDTSTSTVYMELSSLRSEDTAVYYCAAGTYSSGWTIDYWGQGTTVTVSSGGGGSGGGGSGGGASDIVMTQSPLSLPVTLGQPASISCRSSQSLVYTDGNTYLNWFQQRPGQSPRRLIYKVSNRDSGVPDRFSGSGSGTDFTLKISRVEAEDVGIYYCMHSKQWPPTFGGGTKVEIK
